This note sets out measurements from patent US7842460.

The target of series [1] is human Nedd8-PLA2mX fusion, Q15843.
The target in series [2] is T1, Ubiquitin-PLA2mX fusion, Q9QXX3.
T1 chain: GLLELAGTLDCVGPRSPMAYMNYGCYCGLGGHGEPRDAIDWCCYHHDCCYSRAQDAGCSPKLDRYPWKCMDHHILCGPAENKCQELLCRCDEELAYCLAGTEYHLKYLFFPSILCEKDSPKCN

Series [3] concerns the target human SUMO3-PLA2mX fusion, P55854.
The target of series [4] is T2, (yeast SUMO) Smt3-PLA2mX fusion, Q9QXX3.
T2 chain: T1 chain

The target in series [5] is T3, SUMO-GPATase fusion protein from pET24-6H-SUMO-GPATase, P0AG16.
T3 chain: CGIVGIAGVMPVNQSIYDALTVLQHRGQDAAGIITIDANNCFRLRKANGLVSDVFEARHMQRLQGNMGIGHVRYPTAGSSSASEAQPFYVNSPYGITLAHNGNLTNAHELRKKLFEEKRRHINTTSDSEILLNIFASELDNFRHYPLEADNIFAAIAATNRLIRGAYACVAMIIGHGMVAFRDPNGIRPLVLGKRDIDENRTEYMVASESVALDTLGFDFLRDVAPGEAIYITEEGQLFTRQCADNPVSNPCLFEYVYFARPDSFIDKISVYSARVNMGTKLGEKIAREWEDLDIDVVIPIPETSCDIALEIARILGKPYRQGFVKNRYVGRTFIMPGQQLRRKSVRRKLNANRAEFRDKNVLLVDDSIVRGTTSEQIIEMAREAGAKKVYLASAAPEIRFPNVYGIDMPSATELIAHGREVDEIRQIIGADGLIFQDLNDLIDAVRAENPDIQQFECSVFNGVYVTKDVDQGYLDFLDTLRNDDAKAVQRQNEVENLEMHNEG

Series [6] has as its target T4, Smt3-3Dpol (Mahoney strain) fusion from pET24-6H-SUMO-3Dpol, P03300.
T4 chain: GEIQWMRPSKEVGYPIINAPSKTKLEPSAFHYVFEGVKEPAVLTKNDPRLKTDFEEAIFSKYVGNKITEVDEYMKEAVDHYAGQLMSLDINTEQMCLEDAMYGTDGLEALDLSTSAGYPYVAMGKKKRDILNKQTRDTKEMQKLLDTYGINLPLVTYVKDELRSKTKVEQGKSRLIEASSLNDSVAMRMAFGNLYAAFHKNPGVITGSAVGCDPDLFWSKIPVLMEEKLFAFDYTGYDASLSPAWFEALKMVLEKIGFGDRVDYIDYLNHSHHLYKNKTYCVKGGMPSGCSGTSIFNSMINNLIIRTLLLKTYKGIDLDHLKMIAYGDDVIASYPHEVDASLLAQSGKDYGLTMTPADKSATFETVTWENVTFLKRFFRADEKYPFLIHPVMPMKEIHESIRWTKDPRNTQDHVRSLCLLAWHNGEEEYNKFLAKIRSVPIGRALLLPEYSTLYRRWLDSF

For series [7], the target named is Smt3-tryptase (6xHis-SUMO-human tryptase fusion, secreted from Sf9 insect cells) [SUMO: Q12306].
Chain of Smt3-tryptase (6xHis-SUMO-human tryptase fusion, secreted from Sf9 insect cells) [SUMO: Q12306] (Q12306 whole entry, looked up, the tested form may be a part): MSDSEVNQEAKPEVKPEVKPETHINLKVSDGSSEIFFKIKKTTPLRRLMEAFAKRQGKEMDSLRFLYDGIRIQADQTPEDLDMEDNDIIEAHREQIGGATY

Chain of human Nedd8-PLA2mX fusion, Q15843 (Q15843 whole entry, looked up, the tested form may be a part): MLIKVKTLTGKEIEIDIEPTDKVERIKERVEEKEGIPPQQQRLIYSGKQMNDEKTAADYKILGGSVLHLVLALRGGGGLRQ

B1: Den1, a Nedd8-specific isopeptidase (protein)
chain: MDPVVLSYMDSLLRQSDVSLLDPPSWLNDHIIGFAFEYFANSQFHDCSDHVSFISPEVTQFIKCTSNPAEIAMFLEPLDLPNKRVVFLAINDNSNQAAGGTHWSLLVYLQDKNSFFHYDSHSRSNSVHAKQVAEKLEAFLGRKGDKLAFVEEKAPAQQNSYDCGMYVICNTEALCQNFFRQQTESLLQLLTPAYITKKRGEWKDLITTLAKK
In the case of B1, in series [1], the Ratio of PLA2 activity, fusion with isopeptidase over fusion without was 3.38; the “cleavage of the fusion by SDS-PAGE” value is “the Nedd8-fusion protein became cleaved and 14 kDa PLA2mX and 9 kDa Nedd8 bands appear”.

B2: SENP2 isopeptidase (protein)
chain: DLLELTEDMEKEISNALGHGPQDEILSSAFKLRITRGDIQTLKNYHWLNDEVINFYMNLLVERNKKQGYPALHVFSTFFYPKLKSGGYQAVKRWTKGVNLFEQEIILVPIHRKVHWSLVVIDLRKKCLKYLDSMGQKGHRICEILLQYLQDESKTKRNSDLNLLEWTHHSMKPHEIPQQLNGSDCGMFTCKYADYISRDKPITFTQHQMPLFRKKMVWEILHQQLL
Turning to B2, the “cleavage of the fusion by SDS-PAGE” value in series [2] is given as “The SENP2 enzyme failed to cleave the Ubiqutin-PLA2mX fusion protein”. In addition, in series [3], the Ratio of PLA2 activity, fusion with isopeptidase over fusion without came to 9.95; the “cleavage of the fusion by SDS-PAGE (10 ug fusion, 1 ug SENP2)” value is “the appropriately sized hSUMO3 (21 kDa) and PLA2mX (14 kDa) bands were observed, indicating complete cleavage of the fusion protein”.

B3: C-terminal His-tagged SUMO protease 1, ULP1 (403-621)p (protein)
chain: LVPELNEKDDDQVQKALASRENTQLMNRDNIEITVRDFKTLAPRRWLNDTIIEFFMKYIEKSTPNTVAFNSFFYTNLSERGYQGVRRWMKRKKTQIDKLDKIFTPINLNQSHWALGIIDLKKKTIGYVDSLSNGPNAMSFAILTDLQKYVMEESKHTIGEDFDLIHLDCPQQPNGYDCGIYVCMNTLYGSADAPLDFDYKDAIRMRRFIAHLILTDALK
On to B3, for which, in series [4], the Ratio of PLA2 activity, fusion with isopeptidase over fusion without amounted to 7.04; the “cleavage of the fusion by SDS-PAGE (10 ug fusion, 1 ug Ulp-1, one hour)” value was “complete cleavage of the reporter fusion protein to yield the separate constituents, Smt3 (at 21 kDa) and 14 kDa PLA2mX”. Besides, in series [5], the “GPATase activity by coupled glutamate dehydrogenase assay, absorbance at 363 nm” value is reported as “there was an increase is absorbance at the OD 363 reading ... In the absence of Ulp1, this increase of absorbance did not occur” and the “glutaminase activity of GPATase (coupled GDH assay)” value is given as “at least a 10-fold increase in the glutaminase activity of GPATase”. Further, the “cleavage of the fusion by SDS-PAGE and Coomassie Blue staining” value in series [6] was “resulted in 100% of cleavage of 3Dpol”. In addition, the “tryptase activity, peptidyl chromogenic substrate, absorption at 410 nm” value in series [7] was “augmented tryptase activity was measured”. In addition, the “cleavage of the fusion by SDS-PAGE” value in series [2] is listed as “The yeast ULP1 enzyme failed to cleave the Ubiquitin-PLA2mX fusion protein”.
